Laboratory results as given in article PMC10995623, “Apple E3 ligase MdPUB23 mediates ubiquitin-dependent degradation of MdABI5 to delay ABA-triggered leaf senescence”.

Molecular target: T1, MdABI5 (Malus domestica? (apple), UniProt A0A498IDK6 1-461)
T1 sequence: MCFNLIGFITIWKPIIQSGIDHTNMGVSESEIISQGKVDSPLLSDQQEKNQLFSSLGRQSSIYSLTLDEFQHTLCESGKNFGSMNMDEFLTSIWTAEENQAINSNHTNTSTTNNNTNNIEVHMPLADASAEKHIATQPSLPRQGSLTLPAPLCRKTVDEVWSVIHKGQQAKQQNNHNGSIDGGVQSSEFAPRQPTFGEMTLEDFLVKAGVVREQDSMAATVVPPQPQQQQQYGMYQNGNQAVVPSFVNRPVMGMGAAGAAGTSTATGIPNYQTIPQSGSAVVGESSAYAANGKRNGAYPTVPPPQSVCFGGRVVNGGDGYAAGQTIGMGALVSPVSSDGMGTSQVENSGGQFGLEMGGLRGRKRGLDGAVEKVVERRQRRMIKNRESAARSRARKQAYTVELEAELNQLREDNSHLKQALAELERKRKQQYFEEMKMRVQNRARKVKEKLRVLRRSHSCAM
Test: EMSA; MdABI5 alone; Beyotime EMSA/Gel-Shift Kit binding buffer (composition, salt and pH not given), 24 C, 30 min, biotin-labelled probe
Conditions: protein: recombinant; chain copies: 2; label: biotin; blunt

B1: MdSAG18 promoter probe (dsDNA)
DNA 1: GGGGGGGGTCCACGTGGGTCACCAAC
DNA 2: GTTGGTGACCCACGTGGACCCCCCCC
  binding result: no binding
